Measurements: patent US20100330107A1

Key:
[1] = biological target: 24P4C12 (human) (UniProt Q53GD3); experiment: FACS on LNCaP cells, ADC at 0.011 nM, anti-hIgG-PE detection
[2] = biological target: 24P4C12 (human) (UniProt Q53GD3); experiment: FACS on LNCaP cells, ADC at 0.033 nM, anti-hIgG-PE detection
[3] = biological target: 24P4C12 (human) (UniProt Q53GD3); experiment: FACS on LNCaP cells, ADC at 0.098 nM, anti-hIgG-PE detection
[4] = biological target: 24P4C12 (human) (UniProt Q53GD3); experiment: FACS on LNCaP cells, ADC at 0.293 nM, anti-hIgG-PE detection
[5] = biological target: 24P4C12 (human) (UniProt Q53GD3); experiment: FACS on LNCaP cells, ADC at 0.878 nM, anti-hIgG-PE detection
[6] = biological target: 24P4C12 (human) (UniProt Q53GD3); experiment: FACS on LNCaP cells, ADC at 2.634 nM, anti-hIgG-PE detection
[7] = biological target: 24P4C12 (human) (UniProt Q53GD3); experiment: FACS on LNCaP cells, ADC at 7.901 nM, anti-hIgG-PE detection
[8] = biological target: 24P4C12 (human) (UniProt Q53GD3); experiment: FACS on LNCaP cells, ADC at 23.704 nM, anti-hIgG-PE detection
[9] = biological target: 24P4C12 (human) (UniProt Q53GD3); experiment: FACS on LNCaP cells, ADC at 71.111 nM, anti-hIgG-PE detection
[10] = biological target: 24P4C12 (human) (UniProt Q53GD3); experiment: FACS on LNCaP cells, ADC at 106.667 nM, anti-hIgG-PE detection
[11] = biological target: 24P4C12 (human) (UniProt Q53GD3); experiment: FACS on LNCaP cells, ADC at 160.000 nM, anti-hIgG-PE detection
[12] = biological target: 24P4C12 (human) (UniProt Q53GD3); experiment: FACS saturation binding on LNCaP cells with endogenous 24P4C12, one site binding fit

Sequence of UniProt Q53GD3 (Q53GD3 whole entry): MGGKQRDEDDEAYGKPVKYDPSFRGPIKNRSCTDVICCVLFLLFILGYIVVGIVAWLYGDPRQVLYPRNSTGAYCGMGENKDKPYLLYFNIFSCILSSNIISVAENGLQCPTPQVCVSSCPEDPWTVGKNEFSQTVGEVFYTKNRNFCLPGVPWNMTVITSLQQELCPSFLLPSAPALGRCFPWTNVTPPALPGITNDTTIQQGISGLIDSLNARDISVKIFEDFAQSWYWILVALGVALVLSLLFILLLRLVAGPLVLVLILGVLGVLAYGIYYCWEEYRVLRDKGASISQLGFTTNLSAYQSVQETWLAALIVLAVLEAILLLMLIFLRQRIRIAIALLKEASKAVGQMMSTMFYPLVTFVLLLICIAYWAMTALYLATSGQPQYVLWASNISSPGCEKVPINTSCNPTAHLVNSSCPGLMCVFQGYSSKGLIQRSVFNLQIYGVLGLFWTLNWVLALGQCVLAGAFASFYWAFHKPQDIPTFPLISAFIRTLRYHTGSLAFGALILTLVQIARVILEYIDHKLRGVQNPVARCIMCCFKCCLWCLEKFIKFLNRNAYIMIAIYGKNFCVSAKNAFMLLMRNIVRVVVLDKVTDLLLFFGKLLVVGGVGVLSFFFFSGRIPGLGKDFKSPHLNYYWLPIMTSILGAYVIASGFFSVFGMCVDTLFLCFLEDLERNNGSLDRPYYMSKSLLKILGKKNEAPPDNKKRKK

B1: Ha5-1(5)2.1vcMMAE (antibody, human IgG2, kappa, V domains shown)
VH: QVQLVESGGGVVQPGRSLRLSCAASGFTFSSYGMHWVRQAPGKGLEWVAVMSYDGSKKFYTDSVKGRFTISRDNSKNTLYLQMNSLRAEDTAVYYCARDGGDYVRYHYYGMDVWGQGTTVTVSS
VL: DIQMTQSPSTLSASIGDRVTITCRASQGISYYLAWYQQKPGKIPKLLIYDTSSLQSGVPSRFSGSRSGTDLSLTISSLQPEDVATYYCQRYDSAPLTFGGGTKVEIKR
modifications: vcMMAE (Val-Cit linker with monomethyl auristatin E) on cysteine thiols freed by partial reduction with TCEP; p about 3.6 drugs per antibody; positions not given
- MFI [1]: 7 MFI
- MFI [2]: 9 MFI
- MFI [3]: 15 MFI
- MFI [4]: 28 MFI
- MFI [5]: 54 MFI
- MFI [6]: 70 MFI
- MFI [7]: 86 MFI
- MFI [8]: 97 MFI
- MFI [9]: 108 MFI
- MFI [10]: 114 MFI
- MFI [11]: 116 MFI
- Kd [12]: 1.05 nM
